Results on eight molecules are retold here after patent US11833164B2, “Methods of treating Fabry disease in patients having a mutation in the GLA gene” (Amicus Therapeutics, Inc., priority 2019, dated 2023).

The subject of the assay is mutant form of α-Gal A expressed in HEK-293 cells. Kind of assay: HEK assay (GLP HEK / Migalastat Amenability Assay): α-Gal A activity in lysates of transiently transfected HEK-293 cells incubated with or without 10 μM migalastat. The following applies: for Absolute increase (% WT) / Relative increase: 10 μM migalastat versus baseline; for Baseline α-Gal A activity (% WT): absence of migalastat; for Baseline α-Gal A activity (% WT) / 10 μM migalastat α-Gal A activity (% WT): percentage of baseline wild-type α-Gal A activity; for Baseline α-Gal A activity (% WT) / Baseline α-Gal A activity / 10 μM migalastat α-Gal A activity / 10 μM migalastat α-Gal A activity (% WT): mean ± SEM; for Baseline α-Gal A activity / 10 μM migalastat α-Gal A activity: lysates of HEK-293 cells transiently transfected with the mutant form; for Baseline α-Gal A activity: incubated 5 days in absence of migalastat; for 10 μM migalastat α-Gal A activity: incubated 5 days with 10 μM migalastat; for 10 μM migalastat α-Gal A activity (% WT): with 10 μM migalastat, 5 days. In kind it is cell-based, human. In outline: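 HEK-293 cells transiently transfected with mutant α-Gal A and incubated with or without 10 μM migalastat; lysate activity given as nmol free 4-MU released per mg protein per hour. Values are mean±SEM.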

B1: D335G (protein)
chain: MQLRNPELHLGCALALRFLALVSWDIPGARALDNGLARTPTMGWLHWERFMCNLDCQEEPDSCISEKLFMEMAELMVSEGWKDAGYEYLCIDDCWMAPQRDSEGRLQADPQRFPHGIRQLANYVHSKGLKLGIYADVGNKTCAGFPGSFGYYDIDAQTFADWGVDLLKFDGCYCDSLENLADGYKHMSLALNRTGRSIVYSCEWPLYMWPFQKPNYTEIRQYCNHWRNFADIDDSWKSIKSILDWTSFNQERIVDVAGPGGWNDPDMLVIGNFGLSWNQQVTQMALWAIMAAPLFMSNDLRHISPQAKALLQDKDVIAINQDPLGKQGYQLRQGGNFEVWERPLSGLAWAVAMINRQEIGGPRSYTIAVASLGKGVACNPACFITQLLPVKRKLGFYEWTSRLRSHINPTGTVLLQLENTMQMSLKDLL
Consider B1, for which the “Absolute increase (% WT)” value came out at 15.7 % WT, the Relative increase turned out to be 1.3, the “Baseline α-Gal A activity (% WT)” value is 51.3 ± 2.8 % WT and the “Baseline α-Gal A activity” value turned out to be 22766 ± 1355 nmol/mg/h. Moreover, the “10 μM migalastat α-Gal A activity” value was determined as 30341 ± 3325 nmol/mg/h and the “10 μM migalastat α-Gal A activity (% WT)” value worked out at 67 ± 5.6 % WT.

B2: N336D (protein)
chain: MQLRNPELHLGCALALRFLALVSWDIPGARALDNGLARTPTMGWLHWERFMCNLDCQEEPDSCISEKLFMEMAELMVSEGWKDAGYEYLCIDDCWMAPQRDSEGRLQADPQRFPHGIRQLANYVHSKGLKLGIYADVGNKTCAGFPGSFGYYDIDAQTFADWGVDLLKFDGCYCDSLENLADGYKHMSLALNRTGRSIVYSCEWPLYMWPFQKPNYTEIRQYCNHWRNFADIDDSWKSIKSILDWTSFNQERIVDVAGPGGWNDPDMLVIGNFGLSWNQQVTQMALWAIMAAPLFMSNDLRHISPQAKALLQDKDVIAINQDPLGKQGYQLRQGDDFEVWERPLSGLAWAVAMINRQEIGGPRSYTIAVASLGKGVACNPACFITQLLPVKRKLGFYEWTSRLRSHINPTGTVLLQLENTMQMSLKDLL
On to B2, for which the “Absolute increase (% WT)” value is 34.3 % WT, the Relative increase turned out to be 1.7, the “Baseline α-Gal A activity (% WT)” value worked out at 53.7 ± 2.8 % WT and the “Baseline α-Gal A activity” value was 23869 ± 1072 nmol/mg/h. For the same molecule, the “10 μM migalastat α-Gal A activity” value stood at 39534 ± 2519 nmol/mg/h and the “10 μM migalastat α-Gal A activity (% WT)” value is reported as 88.1 ± 4.9 % WT.

B3: N336I (protein)
chain: MQLRNPELHLGCALALRFLALVSWDIPGARALDNGLARTPTMGWLHWERFMCNLDCQEEPDSCISEKLFMEMAELMVSEGWKDAGYEYLCIDDCWMAPQRDSEGRLQADPQRFPHGIRQLANYVHSKGLKLGIYADVGNKTCAGFPGSFGYYDIDAQTFADWGVDLLKFDGCYCDSLENLADGYKHMSLALNRTGRSIVYSCEWPLYMWPFQKPNYTEIRQYCNHWRNFADIDDSWKSIKSILDWTSFNQERIVDVAGPGGWNDPDMLVIGNFGLSWNQQVTQMALWAIMAAPLFMSNDLRHISPQAKALLQDKDVIAINQDPLGKQGYQLRQGDIFEVWERPLSGLAWAVAMINRQEIGGPRSYTIAVASLGKGVACNPACFITQLLPVKRKLGFYEWTSRLRSHINPTGTVLLQLENTMQMSLKDLL
As for B3, the “Absolute increase (% WT)” value came to 23.0 % WT, the Relative increase came out at 2.1, the “Baseline α-Gal A activity (% WT)” value was 20.7 ± 2.7 % WT and the “Baseline α-Gal A activity” value worked out at 8544 ± 1083 nmol/mg/h. Moreover, the “10 μM migalastat α-Gal A activity” value amounted to 18303 ± 1404 nmol/mg/h and the “10 μM migalastat α-Gal A activity (% WT)” value is 43.8 ± 1.6 % WT.

B4: D335Y (protein)
chain: MQLRNPELHLGCALALRFLALVSWDIPGARALDNGLARTPTMGWLHWERFMCNLDCQEEPDSCISEKLFMEMAELMVSEGWKDAGYEYLCIDDCWMAPQRDSEGRLQADPQRFPHGIRQLANYVHSKGLKLGIYADVGNKTCAGFPGSFGYYDIDAQTFADWGVDLLKFDGCYCDSLENLADGYKHMSLALNRTGRSIVYSCEWPLYMWPFQKPNYTEIRQYCNHWRNFADIDDSWKSIKSILDWTSFNQERIVDVAGPGGWNDPDMLVIGNFGLSWNQQVTQMALWAIMAAPLFMSNDLRHISPQAKALLQDKDVIAINQDPLGKQGYQLRQGYNFEVWERPLSGLAWAVAMINRQEIGGPRSYTIAVASLGKGVACNPACFITQLLPVKRKLGFYEWTSRLRSHINPTGTVLLQLENTMQMSLKDLL
In the case of B4, the “Absolute increase (% WT)” value was 11.0 % WT, the Relative increase is given as 1.3, the “Baseline α-Gal A activity (% WT)” value came to 43 ± 1.7 % WT and the “Baseline α-Gal A activity” value was 19469 ± 982 nmol/mg/h. The “10 μM migalastat α-Gal A activity” value was found to be 24732 ± 2214 nmol/mg/h and the “10 μM migalastat α-Gal A activity (% WT)” value is recorded as 54.1 ± 3.5 % WT.

B5: D335V (protein)
chain: MQLRNPELHLGCALALRFLALVSWDIPGARALDNGLARTPTMGWLHWERFMCNLDCQEEPDSCISEKLFMEMAELMVSEGWKDAGYEYLCIDDCWMAPQRDSEGRLQADPQRFPHGIRQLANYVHSKGLKLGIYADVGNKTCAGFPGSFGYYDIDAQTFADWGVDLLKFDGCYCDSLENLADGYKHMSLALNRTGRSIVYSCEWPLYMWPFQKPNYTEIRQYCNHWRNFADIDDSWKSIKSILDWTSFNQERIVDVAGPGGWNDPDMLVIGNFGLSWNQQVTQMALWAIMAAPLFMSNDLRHISPQAKALLQDKDVIAINQDPLGKQGYQLRQGVNFEVWERPLSGLAWAVAMINRQEIGGPRSYTIAVASLGKGVACNPACFITQLLPVKRKLGFYEWTSRLRSHINPTGTVLLQLENTMQMSLKDLL
Consider B5, for which the “Absolute increase (% WT)” value turned out to be 19.4 % WT, the Relative increase is listed as 2.1, the “Baseline α-Gal A activity (% WT)” value came out at 18.1 ± 0.6 % WT and the “Baseline α-Gal A activity” value was found to be 7938 ± 336 nmol/mg/h. Moreover, the “10 μM migalastat α-Gal A activity” value was determined as 16557 ± 929 nmol/mg/h and the “10 μM migalastat α-Gal A activity (% WT)” value turned out to be 37.5 ± 1.6 % WT.

B6: N336Y (protein)
chain: MQLRNPELHLGCALALRFLALVSWDIPGARALDNGLARTPTMGWLHWERFMCNLDCQEEPDSCISEKLFMEMAELMVSEGWKDAGYEYLCIDDCWMAPQRDSEGRLQADPQRFPHGIRQLANYVHSKGLKLGIYADVGNKTCAGFPGSFGYYDIDAQTFADWGVDLLKFDGCYCDSLENLADGYKHMSLALNRTGRSIVYSCEWPLYMWPFQKPNYTEIRQYCNHWRNFADIDDSWKSIKSILDWTSFNQERIVDVAGPGGWNDPDMLVIGNFGLSWNQQVTQMALWAIMAAPLFMSNDLRHISPQAKALLQDKDVIAINQDPLGKQGYQLRQGDYFEVWERPLSGLAWAVAMINRQEIGGPRSYTIAVASLGKGVACNPACFITQLLPVKRKLGFYEWTSRLRSHINPTGTVLLQLENTMQMSLKDLL
For the molecule B6, the “Absolute increase (% WT)” value stood at 16.6 % WT, the Relative increase is given as 1.3, the “Baseline α-Gal A activity (% WT)” value came to 66.3 ± 3.7 % WT and the “Baseline α-Gal A activity” value turned out to be 29615 ± 1640 nmol/mg/h. Also, the “10 μM migalastat α-Gal A activity” value stood at 37475 ± 2540 nmol/mg/h and the “10 μM migalastat α-Gal A activity (% WT)” value is 83 ± 4.4 % WT.

B7: N336T (protein)
chain: MQLRNPELHLGCALALRFLALVSWDIPGARALDNGLARTPTMGWLHWERFMCNLDCQEEPDSCISEKLFMEMAELMVSEGWKDAGYEYLCIDDCWMAPQRDSEGRLQADPQRFPHGIRQLANYVHSKGLKLGIYADVGNKTCAGFPGSFGYYDIDAQTFADWGVDLLKFDGCYCDSLENLADGYKHMSLALNRTGRSIVYSCEWPLYMWPFQKPNYTEIRQYCNHWRNFADIDDSWKSIKSILDWTSFNQERIVDVAGPGGWNDPDMLVIGNFGLSWNQQVTQMALWAIMAAPLFMSNDLRHISPQAKALLQDKDVIAINQDPLGKQGYQLRQGDTFEVWERPLSGLAWAVAMINRQEIGGPRSYTIAVASLGKGVACNPACFITQLLPVKRKLGFYEWTSRLRSHINPTGTVLLQLENTMQMSLKDLL
With B7, the “Absolute increase (% WT)” value worked out at 29.7 % WT, the Relative increase is 2.0, the “Baseline α-Gal A activity (% WT)” value was 28.9 ± 1.3 % WT and the “Baseline α-Gal A activity” value came to 12743 ± 709 nmol/mg/h. For the same molecule, the “10 μM migalastat α-Gal A activity” value is 25898 ± 1374 nmol/mg/h and the “10 μM migalastat α-Gal A activity (% WT)” value is listed as 58.6 ± 2.3 % WT.

B8: N336S (protein)
chain: MQLRNPELHLGCALALRFLALVSWDIPGARALDNGLARTPTMGWLHWERFMCNLDCQEEPDSCISEKLFMEMAELMVSEGWKDAGYEYLCIDDCWMAPQRDSEGRLQADPQRFPHGIRQLANYVHSKGLKLGIYADVGNKTCAGFPGSFGYYDIDAQTFADWGVDLLKFDGCYCDSLENLADGYKHMSLALNRTGRSIVYSCEWPLYMWPFQKPNYTEIRQYCNHWRNFADIDDSWKSIKSILDWTSFNQERIVDVAGPGGWNDPDMLVIGNFGLSWNQQVTQMALWAIMAAPLFMSNDLRHISPQAKALLQDKDVIAINQDPLGKQGYQLRQGDSFEVWERPLSGLAWAVAMINRQEIGGPRSYTIAVASLGKGVACNPACFITQLLPVKRKLGFYEWTSRLRSHINPTGTVLLQLENTMQMSLKDLL
As to B8, the “Absolute increase (% WT)” value came to 18.7 % WT, the Relative increase was determined as 1.2, the “Baseline α-Gal A activity (% WT)” value came out at 79.7 ± 3.8 % WT and the “Baseline α-Gal A activity” value was 32974 ± 2396 nmol/mg/h. Also, the “10 μM migalastat α-Gal A activity” value amounted to 40651 ± 2487 nmol/mg/h and the “10 μM migalastat α-Gal A activity (% WT)” value was 98.4 ± 3.1 % WT.
